Assay results: patent US20180057604A1 (Genentech, published 2018)
Like-named read-outs stand apart in the source and are kept apart here. Values belong to the binder of their own block, whether it stands above or below them.

How the values were obtained:
[1] = biological target: T1, human TfR, full length, on cells (human, UniProt P02786 1-760); assay: FACS, 293 cells, 1 uM holo-Tf
T1 construct: also called human TfR transiently expressed in 293 cells; TfR on HEL cells
Procedure: (§1) Briefly, FACS analysis was performed using 293 cells transfected with full length human or cyno TfR using lipofectamin 2000 plus (Invitrogen) 48-72 h before FACS analysis. […] Cells were washed twice with FACS buffer, 50 μl of PE-Goat-anti-murine Fcγ (Jackson ImmunoResearch) was added to cells and they were incubated on ice for 30 min. Cells were washed with FACS buffer and resuspended in 100 μl FACS buffer for analysis.

[2] = biological target: T2, human TfR extracellular domain with N-terminal His tag (human, UniProt P02786 89-760); assay: ELISA
T2 construct: Biotinylated in some assays; also called huTfR; HuTfR
Target sequence in this assay (P02786 89-760 G142S): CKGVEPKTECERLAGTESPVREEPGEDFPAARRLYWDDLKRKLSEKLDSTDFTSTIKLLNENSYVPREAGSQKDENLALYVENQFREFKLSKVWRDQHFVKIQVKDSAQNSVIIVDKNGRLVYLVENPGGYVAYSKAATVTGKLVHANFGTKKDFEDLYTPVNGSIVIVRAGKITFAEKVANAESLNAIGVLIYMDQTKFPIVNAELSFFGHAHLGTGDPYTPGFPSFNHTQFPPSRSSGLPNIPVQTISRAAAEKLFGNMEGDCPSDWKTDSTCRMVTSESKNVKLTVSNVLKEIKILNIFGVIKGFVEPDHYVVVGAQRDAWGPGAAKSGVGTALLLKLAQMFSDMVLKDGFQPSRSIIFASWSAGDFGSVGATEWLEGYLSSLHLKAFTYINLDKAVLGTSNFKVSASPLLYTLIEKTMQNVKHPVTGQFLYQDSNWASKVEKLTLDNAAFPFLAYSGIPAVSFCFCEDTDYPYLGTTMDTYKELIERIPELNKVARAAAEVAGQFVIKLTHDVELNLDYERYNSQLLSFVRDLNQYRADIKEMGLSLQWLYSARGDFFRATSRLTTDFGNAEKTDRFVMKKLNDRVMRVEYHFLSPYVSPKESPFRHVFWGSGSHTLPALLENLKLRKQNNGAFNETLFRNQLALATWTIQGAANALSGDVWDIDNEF

[3] = biological target: T3, cyno TfR extracellular domain (analogous construct to human TfR ecd) (cynomolgus monkey, UniProt Q5RDH6 87-760 (Pongo abelii entry)); assay: SPR, Fab
T3 construct: also called cynoTfR ecd
T3 chain: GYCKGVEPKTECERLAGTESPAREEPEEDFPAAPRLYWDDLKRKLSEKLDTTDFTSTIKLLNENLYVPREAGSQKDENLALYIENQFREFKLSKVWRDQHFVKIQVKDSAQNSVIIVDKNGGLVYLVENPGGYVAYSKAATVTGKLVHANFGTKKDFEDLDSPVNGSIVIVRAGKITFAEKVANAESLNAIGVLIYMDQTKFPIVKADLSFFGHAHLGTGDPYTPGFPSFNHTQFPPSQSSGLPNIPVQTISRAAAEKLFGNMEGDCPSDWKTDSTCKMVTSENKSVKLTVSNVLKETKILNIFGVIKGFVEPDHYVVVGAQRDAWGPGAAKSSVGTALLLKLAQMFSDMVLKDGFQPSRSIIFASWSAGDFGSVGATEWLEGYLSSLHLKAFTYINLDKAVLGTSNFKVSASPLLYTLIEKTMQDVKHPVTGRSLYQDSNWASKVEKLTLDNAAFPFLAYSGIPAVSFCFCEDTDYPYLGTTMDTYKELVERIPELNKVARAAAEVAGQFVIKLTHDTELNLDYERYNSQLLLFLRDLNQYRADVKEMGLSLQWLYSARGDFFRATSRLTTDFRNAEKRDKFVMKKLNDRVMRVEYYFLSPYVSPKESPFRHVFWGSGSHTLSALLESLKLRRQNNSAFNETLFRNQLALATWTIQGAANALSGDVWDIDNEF
Procedure: (§2) Antibody affinities were measured using surface plasmon resonance (“SPR”) (Biacore™, GE Healthcare). Anti-His antibody (Qiagen) was coupled onto four different flow cells of a BIACORE™ CM5 sensor chip (Biacore, Inc., Piscataway, N.J.) at between 6000 and 8000 RU. Immobilization was achieved by random coupling through amino groups using a protocol provided by the manufacturer. 10×HBS-P (Biacore, Inc., Piscataway, N.J.) was diluted in water and served as the dilution and running buffer. Purified human or cyno TfR was captured, followed by a 3-fold dilution series of IgG or Fab that was injected at a flow rate of 30 ml/min using the single cycle kinetics method. Affinity constants were determined using a simple 1:1 Langmuir binding model or using a steady state model when kₒₙ or koff was beyond the detection limit. The equilibrium dissociation constant (KD) was calculated as the ratio of association rate constant (kₒₙ) and dissociation rate constant (koff).
(§3) These variants were screened as IgG by ELISA and SPR to identify positions important for binding to human and cyno TfR; the monovalent affinity of selected variants as Fab was also determined. […] Plates were washed with PBS/0.05% Tween 20 and blocked using Superblock blocking buffer in PBS (Thermo Scientific, Hudson, N.H.). Supernatants containing expressed IgG were diluted serially 1:5 and added to the plate for 1 h. […] Plates were washed with PBS/0.05% Tween 20 and 1:1000 diluted HRP-Goat-anti kappa (Southern Biotech) was added the plate and incubated for 1 h at room temperature. Plates were washed with PBS/0.05% Tween 20 and detected using TMB substrate (BioFX Laboratories, Owings Mills). Binding was also assessed by SPR, as described above.

[4] = biological target: T2, human TfR extracellular domain with …; assay: SPR, Fab
Procedure: as §2, §3

[5] = biological target: T3, cyno TfR extracellular domain …; assay: ELISA, IgG
Procedure: (§4) Affinity variants were generated by making individual alanine substitutions in CDR-L3 or CDR-H3 using standard techniques. These variants were screened as IgG by ELISA and SPR to identify positions important for binding to human and cyno TfR; the monovalent affinity of selected variants as Fab was also determined. […] Plates were washed with PBS/0.05% Tween 20 and blocked using Superblock blocking buffer in PBS (Thermo Scientific, Hudson, N.H.). Supernatants containing expressed IgG were diluted serially 1:5 and added to the plate for 1 h. […] Plates were washed with PBS/0.05% Tween 20 and 1:1000 diluted HRP-Goat-anti kappa (Southern Biotech) was added the plate and incubated for 1 h at room temperature. Plates were washed with PBS/0.05% Tween 20 and detected using TMB substrate (BioFX Laboratories, Owings Mills).

[6] = biological target: T2, human TfR extracellular domain with …; assay: ELISA, IgG
Target sequence in this assay (P02786 89-760 G142S): as the sequence (P02786 89-760 G142S) above
Procedure: as §4

[7] = biological target: T2, human TfR extracellular domain with …; assay: ELISA, immobilized huTfR, with and without 6.3 uM holo-Tf
Procedure: Plates were washed with PBS/0.05% Tween 20 and blocked using Superblock blocking buffer in PBS (Thermo Scientific, Hudson, N.H.). […] Plates were washed with PBS/0.05% Tween 20 and 1:1000 diluted HRP-Goat-anti human Fcγ (Jackson ImmunoResearch) was added to the plate and incubated for 1 h at room temperature. Plates were washed with PBS/0.05% Tween 20 and detected using TMB substrate (BioFX Laboratories, Owings Mills).

[8] = biological target: T3, cyno TfR extracellular domain …; assay: SPR SCK 1:1 fit, IgG
Procedure: as §2, §3

[9] = biological target: T2, human TfR extracellular domain with …; assay: SPR SCK 1:1 fit, IgG
Procedure: as §2, §3

[10] = biological target: T3, cyno TfR extracellular domain …; assay: SPR, IgG;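 also: His-tagged TfR captured via immobilized anti-His antibody on a CM5 chip, antibody injected in 3-fold dilution series by single cycle kinetics, 1:1 Langmuir or steady-state fit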
Procedure: as §2
(§5) In both cases, the SPR experiments were performed as described above.

[11] = biological target: T2, human TfR extracellular domain with …; assay: SPR, IgG;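 also: His-tagged TfR captured via immobilized anti-His antibody on a CM5 chip, antibody injected in 3-fold dilution series by single cycle kinetics, 1:1 Langmuir or steady-state fit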
Target sequence in this assay (P02786 89-760 G142S): as the sequence (P02786 89-760 G142S) above
Procedure: as §2, §5

[12] = biological target: T1, human TfR, full length, on cells; assay: FACS, 293 cells, 1 uM holo-Tf; remark: listed apart in the source
Procedure: as §1

[13] = biological target: T3, cyno TfR extracellular domain …; assay: SPR SCK 1:1 fit, IgG
[14] = biological target: T2, human TfR extracellular domain with …; assay: SPR SCK 1:1 fit, IgG; remark: listed apart in the source
Target sequence in this assay (P02786 89-760 G142S): as the sequence (P02786 89-760 G142S) above

[15] = biological target: T3, cyno TfR extracellular domain …; assay: ELISA, IgG
[16] = biological target: T2, human TfR extracellular domain with …; assay: ELISA, IgG; remark: listed apart in the source
Target sequence in this assay (P02786 89-760 G142S): as the sequence (P02786 89-760 G142S) above

[17] = biological target: T3, cyno TfR extracellular domain …; assay: SPR steady state, IgG
Procedure: as §2, §3

[18] = biological target: T2, human TfR extracellular domain with …; assay: SPR steady state, IgG
Target sequence in this assay (P02786 89-760 G142S): as the sequence (P02786 89-760 G142S) above
Procedure: as §2, §3

[19] = biological target: T4, BACE1 in primary mouse cortical neurons (mouse, UniProt P56818 46-501); assay: cell-based or functional assay
T4 sequence (P56818 46-501): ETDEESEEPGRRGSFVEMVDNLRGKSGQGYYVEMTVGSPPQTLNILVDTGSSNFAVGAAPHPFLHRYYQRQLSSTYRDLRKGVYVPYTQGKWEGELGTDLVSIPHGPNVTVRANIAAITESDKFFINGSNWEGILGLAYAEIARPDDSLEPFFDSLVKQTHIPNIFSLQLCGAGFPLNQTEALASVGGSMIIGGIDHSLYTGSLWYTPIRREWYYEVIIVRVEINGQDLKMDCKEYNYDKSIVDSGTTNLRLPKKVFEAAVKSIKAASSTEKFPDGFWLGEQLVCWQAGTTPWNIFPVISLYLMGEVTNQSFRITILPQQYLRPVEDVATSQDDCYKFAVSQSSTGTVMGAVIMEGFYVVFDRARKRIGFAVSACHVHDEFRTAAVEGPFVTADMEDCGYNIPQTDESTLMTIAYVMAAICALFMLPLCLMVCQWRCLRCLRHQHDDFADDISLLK

[20] = biological target: T5, murine BACE1 ECD; assay: Octet, pH 7.5;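 also: antibodies captured on anti-human capture sensor tips, dissociation monitored in PBS with BSA, Kd obtained from kinetic fit to a one-to-one binding model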
T5 construct: analyte of the Octet assay (200 nM) and enzyme of the first short substrate assay
T5 sequence (single chain, as listed by the source limits assumed): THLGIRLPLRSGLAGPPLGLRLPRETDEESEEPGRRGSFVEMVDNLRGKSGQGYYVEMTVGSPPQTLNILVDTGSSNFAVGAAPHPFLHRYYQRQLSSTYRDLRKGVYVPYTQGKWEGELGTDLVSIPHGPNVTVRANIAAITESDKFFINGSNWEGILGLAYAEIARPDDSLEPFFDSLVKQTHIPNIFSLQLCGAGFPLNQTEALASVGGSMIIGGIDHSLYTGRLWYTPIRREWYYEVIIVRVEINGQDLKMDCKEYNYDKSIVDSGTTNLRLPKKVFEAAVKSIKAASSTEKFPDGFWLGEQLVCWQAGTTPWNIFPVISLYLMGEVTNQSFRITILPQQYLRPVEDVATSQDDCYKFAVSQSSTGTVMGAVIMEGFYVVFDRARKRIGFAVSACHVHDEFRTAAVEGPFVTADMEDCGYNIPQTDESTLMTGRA
Procedure: (§6) Anti-BACE1 antibodies were loaded onto anti-human capture (AHC) sensors (tips) followed by 60 seconds baseline in assay buffer. […] Tips were transferred to assay buffer for 5 minutes, 30 minutes, or 120 minutes depending on the off-rate, for off-rate measurement. Assay buffer was either PBS+0.1% BSA, pH 7.5; or PBS+0.1% BSA, pH 5.0. Kinetics were analyzed using a 1:1 binding model.

[21] = biological target: T6, human BACE1 ECD; assay: Octet, pH 7.5;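 also: antibodies captured on anti-human capture sensor tips, dissociation monitored in PBS with BSA, Kd obtained from kinetic fit to a one-to-one binding model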
T6 construct: analyte of the Octet assay (200 nM) and enzyme of the first short substrate assay; also called human BACE1 extracellular domain
T6 sequence (single chain, as listed by the source limits assumed): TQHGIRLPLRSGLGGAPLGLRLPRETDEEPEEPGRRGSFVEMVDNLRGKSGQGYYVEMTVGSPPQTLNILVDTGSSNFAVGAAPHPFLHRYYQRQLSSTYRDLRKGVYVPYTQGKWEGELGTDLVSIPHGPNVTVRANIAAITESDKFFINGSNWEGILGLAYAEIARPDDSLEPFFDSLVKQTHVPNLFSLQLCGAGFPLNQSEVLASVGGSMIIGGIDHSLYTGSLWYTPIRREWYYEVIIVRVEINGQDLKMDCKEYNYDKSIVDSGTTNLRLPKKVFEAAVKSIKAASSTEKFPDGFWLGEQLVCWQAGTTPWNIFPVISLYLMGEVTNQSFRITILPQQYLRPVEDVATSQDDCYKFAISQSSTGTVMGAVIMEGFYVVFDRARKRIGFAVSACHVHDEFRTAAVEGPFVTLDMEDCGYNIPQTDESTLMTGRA
Procedure: as §6

[22] = biological target: T4, BACE1 in primary mouse cortical neurons; assay: cell-based or functional assay; remark: listed apart in the source
[23] = biological target: T7, human BACE1 (R&D Systems) (human, UniProt P56817); assay: SPR (Biacore)
T7 construct: recombinant, commercial (R&D Systems)
T7 sequence (P56817 22-457 limits assumed): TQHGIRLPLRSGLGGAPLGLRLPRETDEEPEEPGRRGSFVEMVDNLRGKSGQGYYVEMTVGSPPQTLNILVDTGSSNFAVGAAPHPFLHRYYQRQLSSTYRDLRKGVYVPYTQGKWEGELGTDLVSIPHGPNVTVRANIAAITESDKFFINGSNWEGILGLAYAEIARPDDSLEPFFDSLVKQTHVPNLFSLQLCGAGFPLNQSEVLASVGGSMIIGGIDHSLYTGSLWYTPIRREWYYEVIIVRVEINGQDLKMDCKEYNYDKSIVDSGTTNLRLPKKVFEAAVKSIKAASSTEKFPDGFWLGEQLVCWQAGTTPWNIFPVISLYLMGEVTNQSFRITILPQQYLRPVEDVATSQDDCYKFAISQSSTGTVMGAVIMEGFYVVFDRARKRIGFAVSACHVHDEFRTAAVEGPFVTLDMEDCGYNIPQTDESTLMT
Procedure: Binding affinities of certain anti-BACE1 IgGs were measured by surface plasmon resonance (SRP) using a BIAcore™-T100 instrument. […] Association rates (kon) and dissociation rates (koff) were calculated using a simple one-to-one Langmuir binding model (BIAcore Evaluation Software version 3.2). The equilibrium dissociation constant (KD) was calculated as the ratio koff/kon.

[24] = biological target: T5, murine BACE1 ECD; assay: Octet, pH 5.0;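 also: antibodies captured on anti-human capture sensor tips, dissociation monitored in PBS with BSA buffer, kinetics fitted with a one-to-one binding model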
Procedure: as §6

[25] = biological target: T6, human BACE1 ECD; assay: Octet, pH 5.0;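 also: antibodies captured on anti-human capture sensor tips, dissociation monitored in PBS with BSA buffer, kinetics fitted with a one-to-one binding model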
Procedure: as §6

B1: 4C2 (antibody, V domains shown)
VH: QVQLQQPGSELVRPGASVKLSCKASGYTFTSYWMHWVKQRHGQGLEWIGNIYPGSGSTKYDEKFKSKGTLTVDTSSSTAYMHLSSLTSEDSAVYYCTRGGYDSRAWFAHWGQGTLVTVSA
VL: DIVLTQSPASLAVSLGQRATISCRARQSVSTSSYSFMHWYQQKPGQPPKLLIKYASIQESGVPARFSGSGSGTDFTLNILPVEEEDTATYYCQHTWEIPFTFGSGTNLEIK
notes: Mouse hybridoma antibody; also called clone 4C2
binding result [1]: binds | binding result [2]: binds

B2: Q90A (Fab, V domains shown)
VH: EVQLVQSGAEVKKPGASVKVSCKGSGYTFTDYAMHWVRQAPGQGLEWMGGISTYFGRTNYNQKFKGRVTMTVDTSISTAYMELSRLRSDDTAVYYCARGLSGNYVMDYWGQGTTVTVSS
VL: DIVMTQSPDSLAVSLGERATINCRASESVDSYGNSFMHWYQQKPGQPPKLLIYRASNLESGVPDRFSGSGSRTDFTLTISSLQAEDVAVYYCQASNEAPPTFGQGTKLEIK
notes: also called 7A4.v15 Q90A (CDR-L3) Fab
Kd [3]: 760 nM | Kd [4]: 130 nM

B4: 13C3 (antibody, V domains shown)
VH: QVQLQQPGAELVKPGASVKLSCKASGYTFASYWMHWVKQRPGQGLEWIGEINPINGRTNYSEKFKKKATLTVDKSSSTAYMQLSSLTSEDSAVYYCARGTRAYHYWGQGTSVTVSS
VL: DIQMTQSPASLSVSVGETVTITCRASDNIYSNLAWYQQKQGKSPQLLVYAATNLADGVPSRFSGSGSGTQYSLKINSLQSEDFGSYYCQHFWGTPLMFGSGTKLELK
notes: Mouse hybridoma antibody; also called clone 13C3
binding result [12]: binds | binding result [2]: binds

B7: Q89A (antibody, V domains shown)
VH: EVQLVQSGAEVKKPGASVKVSCKASGYTFTSYWMHWVRQAPGQRLEWIGEINPTNGRTNYIEKFKSRATLTVDKSASTAYMELSSLRSEDTAVYYCARGTRAYHYWGQGTMVTVSS
VL: DIQMTQSPSSLSASVGDRVTITCRASDNLYSNLAWYQQKPGKSPKLLVYDATNLADGVPSRFSGSGSGTDYTLTISSLQPEDFATYYCAHFWGTPLTFGQGTKVEIK
notes: also called 15G11.v5 Q89A (CDR-L3) IgG
Kd [13]: 268 nM | Kd [14]: 125 nM | EC50 [15]: 0.506 µg/mL | EC50 [16]: 0.03 µg/mL | Kd [17]: 591 nM | Kd [18]: 212 nM

B8: anti-BACE1 antibody 6266 (antibody, V domains shown)
VH: EVQLVQSGAEVKKPGSSVKVSCKASGGTLSGYGVSWVRQAPGQGLEWMGNIIPGFGTANYAQKFQGRVTITADESTSTAYMELSSLRSEDTAVYYCARSGGTKYGMLDVWGQGTMVTVSS
VL: EIVMTQSPATLSVSPGERATLSCRASQSVSSNLAWYQQKPGQAPRLLIYGASTRATGIPARFSGSGSGTEFTLTISSLQSEDFAVYYCQQLILWPPRTFGGGTKVEIK
notes: Fully human antibody
IC50, inhibition of Abeta x-40 production in primary mouse cortical neurons [19]: 1.7 nM | Kd [20]: < 0.31 nM | Kd [21]: < 0.3 nM | IC50, Abeta x-40 in mouse cortical neurons [22]: 1.66 nM | maximal % inhibition of Abeta x-40 [22]: 87% | Kd [23]: 1.12 nM | Kd [24]: 0.32 nM | Kd [25]: < 0.24 nM

The next lines start with the values.

EC50 [5]: 0.0142 µg/mL | EC50 [6]: 0.0148 µg/mL | EC50 (read off the curve) [7]: ~0.005 µg/mL | Kd [8]: 7.8 nM | Kd [9]: 0.58 nM | Kd [10]: 7.8 nM | Kd [11]: 0.561 nM
B3: hu7A4.v15 IgG (antibody, V domains shown)
VH: EVQLVQSGAEVKKPGASVKVSCKGSGYTFTDYAMHWVRQAPGQGLEWMGGISTYFGRTNYNQKFKGRVTMTVDTSISTAYMELSRLRSDDTAVYYCARGLSGNYVMDYWGQGTTVTVSS
VL: DIVMTQSPDSLAVSLGERATINCRASESVDSYGNSFMHWYQQKPGQPPKLLIYRASNLESGVPDRFSGSGSRTDFTLTISSLQAEDVAVYYCQQSNEAPPTFGQGTKLEIK
notes: Human IgG; also called humanized 7A4.v15

binding result [12]: binds | binding result [2]: binds
B5: 16G5 (antibody, V domains shown)
VH: QVQLQQPGAELVRPGAAVKLSCKASGYTFTSYWMHWVKQRPGQGLEWIGEINPTNGRTNYNENFKSKATLTVDKSSSTAYMQLSSLTSEDSAVYYCARGTRAYHFWGQGTSVTVSS
VL: DIQLTQTPASLSVSVGETVTITCRASENIYSNLAWYQQKQGKSPQLLVYAATDLADGVPSRFRGSGSGTQYSLKINSLQSEDFGSYYCQHFWGTPLTFGAGTKLELI
notes: Mouse hybridoma antibody; also called clone 16G5

binding result [1]: binds | binding result [2]: binds
B6: 15D2 (antibody, V domains shown)
VH: QVQLQQSGPELVRPGVSVKISCKGSGYTVTDYAMHWVKQSHAKSLEWIGVISFYSGKTNYNQKFMGKATMTVDKSSSTAYMELARLTSEDSAIYYCARGLSGNYVMDYWGQGTSVTVSS
VL: DIVLTQSPASLAVSLGQRATISCRASESVDSYGNSFMHWYQQKPGQPPKLLIYRASNLESGIPARFSGSGSRTDFTLTINPVEADDVATYYCQQSNEGPPTFGGGTKLEIK
notes: Mouse hybridoma antibody; also called clone 15D2

IC50, inhibition of Abeta x-40 production in primary mouse cortical neurons [19]: 1.7 nM
B9: bispecific antibody TfR^2/6266 (bispecific antibody, V domains shown)
VH 1: EVQLVQSGAEVKKPGASVKVSCKASGYTFTSYWMHWVRQAPGQRLEWIGEINPTNGRTNYIEKFKSRATLTVDKSASTAYMELSSLRSEDTAVYYCARGTRAYHYWGQGTMVTVSS
VL 1: DIQMTQSPSSLSASVGDRVTITCRASDNLYSNLAWYQQKPGKSPKLLVYDATNLADGVPSRFSGSGSGTDYTLTISSLQPEDFATYYCQHFAGTPLTFGQGTKVEIK
VH 2: EVQLVQSGAEVKKPGSSVKVSCKASGGTLSGYGVSWVRQAPGQGLEWMGNIIPGFGTANYAQKFQGRVTITADESTSTAYMELSSLRSEDTAVYYCARSGGTKYGMLDVWGQGTMVTVSS
VL 2: EIVMTQSPATLSVSPGERATLSCRASQSVSSNLAWYQQKPGQAPRLLIYGASTRATGIPARFSGSGSGTEFTLTISSLQSEDFAVYYCQQLILWPPRTFGGGTKVEIK
